The values that follow are results of earlier work, collected in article PMC3575173.

For this data set, the target named is TAMRA-TRTK-12 (UniProt P52907).

The term Kd denotes the equilibrium constant for the complex coming apart. Regarding S100B (from UniProt P04271), the Kd was 1.19 µM.
